# B1: Triosephosphate isomerase wild type, P00942 (protein)
# chain: MARTFFVGGNFKLNGSKQSIKEIVERLNTASIPENVEVVICPPATYLDYSVSLVKKPQVTVGAQNAYLKASGAFTGENSVDQIKDVGAKWVILGHSERRSYFHEDDKFIADKTKFALGQGVGVILCIGETLEEKKAGKTLDVVERQLNAVLEEVKDWTNVVVAYEPVWAIGTGLAATPEDAQDIHASIRKFLASKLGDKAASELRILYGGSANGSNAVTFKDKADVDGFLVGGASLKPEFVDIINSRN
# B2: Tryptophan synthase alpha chain wild type, P00929 (protein)
# chain: MERYENLFAQLNDRREGAFVPFVTLGDPGIEQSLKIIDTLIDAGADALELGVPFSDPLADGPTIQNANLRAFAAGVTPAQCFEMLALIREKHPTIPIGLLMYANLVFNNGIDAFYARCEQVGVDSVLVADVPVEESAPFRQAALRHNIAPIFICPPNADDDLLRQVASYGRGYTYLLSRSGVTGAENRGALPLHHLIEKLKEYHAAPALQGFGISSPEQVSAAVRAGAAGAISGSAIVKIIEKNLASPKQMLAELRSFVSAMKAASRA
# B3: DNA-binding protein 7d wild type, P13123 (protein)
# chain: MVKVKFKYKGEEKEVDTSKIKKVWRVGKMVSFTYDDNGKTGRGAVSEKDAPKELLDMLARAEREKK
# B4: Holocytochrome-c synthase wild type, P06182 (protein)
# chain: MGWFWADQKTTGKDIGGAAVSSMSGCPVMHESSSSSPPSSECPVMQGDNDRINPLNNMPELAASKQPGQKMDLPVDRTISSIPKSPDSNEFWEYPSPQQMYNAMVRKGKIGGSGEVAEDAVESMVQVHNFLNEGCWQEVLEWEKPHTDESHVQPKLLKFMGKPGVLSPRARWMHLCGLLFPSHFSQELPFDRHDWIVLRGERKAEQQPPTFKEVRYVLDFYGGPDDENGMPTFHVDVRPALDSLDNAKDRMTRFLDRMISGPSSSSSAP
# B5: Lysozyme wild type, P15057 (protein)
# chain: MVKKNDLFVDVSSHNGYDITGILEQMGTTNTIIKISESTTYLNPCLSAQVEQSNPIGFYHFARFGGDVAEAEREAQFFLDNVPMQVKYLVLDYEDDPSGDAQANTNACLRFMQMIADAGYKPIYYSYKPFTHDNVDYQQILAQFPNSLWIAGYGLNDGTANFEYFPSMDGIRWWQYSSNPFDKNIVLLDDEEDDKPKTAGTWKQDSKGWWFRRNNGSFPYNKWEKIGGVWYYFDSKGYCLTSEWLKDNEKWYYLKDNGAMATGWVLVGSEWYYMDDSGAMVTGWVKYKNNWYYMTNERGNMVSNEFIKSGKGWYFMNTNGELADNPSFTKEPDGLITVA
# B6: NAD(P)H-dependent FMN reductase LOT6 wild type, Q07923 (protein)
# chain: MKVGIIMGSVRAKRVCPEIAAYVKRTIENSEELIDQKLKIQVVDLQQIALPLYEDDDELIPAQIKSVDEYADSKTRSWSRIVNALDIIVFVTPQYNWGYPAALKNAIDRLYHEWHGKPALVVSYGGHGGSKCNDQLQEVLHGLKMNVIGGVAVKIPVGTIPLPEDIVPQLSVHNEEILQLLASCIETTRNK
# B7: Subtilisin inhibitor wild type, P01006 (protein)
# chain: MRNTGAGPSPSVSRPPPSAAPLSGAALAAPGDAPSALYAPSALVLTVGKGVSATTAAPERAVTLTCAPGPSGTHPAAGSACADLAAVGGDLNALTRGEDVMCPMVYDPVLLTVDGVWQGKRVSYERVFSNECEMNAHGSSVFAF
# B8: Dihydroneopterin aldolase wild type, P56740 (protein)
# chain: MQDTIFLKGMRFYGYHGALSAENEIGQIFKVDVTLKVDLSEAGRTDNVIDTVHYGEVFEEVKSIMEGKAVNLLEHLAERIANRINSQYNRVMETKVRITKENPPIPGHYDGVGIEIVRENK
# Details: whole UniProt chain shown
# [1] = Saccharomyces cerevisiae (strain ATCC 204508 / S288c), pH 8.5, Thermal, DSC, Tris 0.05 M, reversible: no
# [2] = Sulfolobus acidocaldarius (strain ATCC 33909 / DSM 639 / JCM 8929 / NBRC 15157 / NCIMB 11770), pH 7, Thermal, DSC, Acetate 10 mM, reversible: Yes
# [3] = Sulfolobus acidocaldarius (strain ATCC 33909 / DSM 639 / JCM 8929 / NBRC 15157 / NCIMB 11770), pH 7, Thermal, DSC, Unknown, reversible: yes
# [4] = Saccharomyces cerevisiae (strain ATCC 204508 / S288c), pH 6, Thermal, Absorbance, Sodium phosphate 100 mM, reversible: yes
# [5] = Streptococcus phage Cp-1, pH 7, Thermal, DSC, phosphate 20 mM, reversible: no
# [6] = Streptococcus phage Cp-1, pH 7, Thermal, DSC, phosphate 20 mM, transition: 3, reversible: no
# [7] = Staphylococcus aureus, pH 7, Thermal, CD, NaPP 0.1 M, reversible: yes
# [8] = Staphylococcus aureus, pH 7, Thermal, Fluorescence, NaPP 0.1 M, reversible: yes
protein,measurement,setting,value
B1,Tm,[1],59 °C
same,heat capacity change of unfolding,[1],11.7 kcal/mol/K
same,unfolding enthalpy (calorimetric),[1],318 kcal/mol
B2,unfolding free energy,"Salmonella typhimurium (strain LT2 / SGSC1412 / ATCC 700720), pH 7, 25 °C, GdnHCl, CD, Potassium phosphate 0.01 M, reversible: yes",9.7 kcal/mol
same,Tm,"Salmonella typhimurium (strain LT2 / SGSC1412 / ATCC 700720), pH 7.8, Thermal, Enzyme activity, sodium N/N-bis(2-hydroxyethyl)glycine 0.05 M",46 °C
same,Tm,"Salmonella typhimurium (strain LT2 / SGSC1412 / ATCC 700720), pH 9, Thermal, DSC, Sodium tetraborate 1 mM, reversible: yes(>70%)",47.6 °C
B3,Tm,"Sulfolobus acidocaldarius (strain ATCC 33909 / DSM 639 / JCM 8929 / NBRC 15157 / NCIMB 11770), pH 4, Thermal, DSC, Potassium acetate 0.05 M, KCl 0.3 M, reversible: yes",86.8 °C
same,Tm,"Sulfolobus acidocaldarius (strain ATCC 33909 / DSM 639 / JCM 8929 / NBRC 15157 / NCIMB 11770), pH 6, Thermal, DSC, KH2PO4 0.01 M, KCl 0.1 M, reversible: yes",99.4 °C
same,Tm,[2],90.7 °C
same,heat capacity change of unfolding,[2],0.71 kcal/mol/K
same,unfolding enthalpy (calorimetric),[2],58.5 kcal/mol
same,Tm,[3],90.7 °C
same,heat capacity change of unfolding,[3],0.71 kcal/mol/K
same,unfolding enthalpy (calorimetric),[3],58.5 kcal/mol
B4,Tm,[4],46.5 °C
same,heat capacity change of unfolding,[4],2 kcal/mol/K
same,unfolding enthalpy (van 't Hoff),[4],79 kcal/mol
B5,Tm,[5],42.9 °C
same,unfolding enthalpy (calorimetric),[5],109 kcal/mol
same,unfolding enthalpy (van 't Hoff),[5],232 kcal/mol
same,Tm,[6],43.5 °C
same,unfolding enthalpy (calorimetric),[6],143 kcal/mol
same,unfolding enthalpy (van 't Hoff),[6],100 kcal/mol
B6,Tm,"Saccharomyces cerevisiae (strain ATCC 204508 / S288c), pH 7.5, Thermal, CD, Tris-HCl 100 mM, reversible: No",60.2 °C
B7,Tm,"Streptomyces albogriseolus, pH 2.45, Thermal, CD, glycine 25 mM, reversible: yes",21.6 °C
same,Tm,"Streptomyces albogriseolus, pH 2.72, Thermal, CD, glycine 25 mM, reversible: yes",31.6 °C
same,Tm,"Streptomyces albogriseolus, pH 2.87, Thermal, CD, glycine 25 mM, reversible: yes",35.7 °C
same,unfolding free energy,"Streptomyces albogriseolus, pH 3.21, 20 °C, Thermal, CD, glycine 25 mM, reversible: yes",4.07 kcal/mol
same,Tm,"Streptomyces albogriseolus, pH 3.21, Thermal, CD, glycine 25 mM, reversible: yes",45.8 °C
B8,Tm,[7],42.5 °C
same,unfolding enthalpy (van 't Hoff),[7],141 kcal/mol
same,Tm,[8],43.5 °C
same,unfolding enthalpy (van 't Hoff),[8],151 kcal/mol

# Reference: FireProtDB
